{
  "source": "the nanobody polyreactivity screen of Harvey et al. (2022)",
  "data": [
    {"experiment": "yeast display, Sf9 membrane polyspecificity reagent, FACS + sequencing; frameworks hold sequencing errors", "summary_of_the_method": "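Synthetic nanobody libraries on Saccharomyces cerevisiae BJ5465 were galactose-induced for 36–48 hours, stained 1 hour at 4 °C with 10% biotinylated, detergent-solubilized Sf9 membrane reagent and enriched on streptavidin microbeads. FACS then separated cells into low and high (top ~1%) gates by anti-HA (expression) and streptavidin (reagent binding) fluorescence. Genes were colony-PCR amplified, MiSeq 2 × 250 sequenced and CDR-length filtered. A clone's polyreactivity label is that of its gate of origin.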", "values": [
      {"sequence": "QVQLVESGGGLVQAGGSLRLSCAASGFTFKTYVMGWYRQAPGKERELVAAISRRGGSTHYADSVKGRFTISRDNAKNTVYLQMNSLKPEVTAVYYCAARHPFAGTVWGVVSYDYWGQGTLVTVSS", "polyreactivity (PSR sort gate)": "high polyreactivity"},
      {"sequence": "QVQLVESGGGLVQAGGSLRLSCAASGFTFKWYTRGWYRQAPGKERELVAAISTRGGSTYYADSVKGRFTISRDNAKNTVYLQMNSLKPEDTAVYYCAAVYRRGSGYDYWGQGTQVTVSS", "polyreactivity (PSR sort gate)": "high polyreactivity"},
      {"sequence": "QVQLVESGGGLVQAGGSLRLSCAASGFTFKYKAMGWYRQAPGKERELVAVISSSGGRTYYADSVKGRFTISRDNAKNTVYLQMNSLKPEDTAVYYCAADTFVWADWSWHYYWRQGTQVTVSS", "polyreactivity (PSR sort gate)": "high polyreactivity"},
      {"sequence": "QVQLVESGGGLVQAGGSLRLSCAASGFTFKYYAMGWYRQAPGKERELVAAIRRSAGSTNYADSVKGRFTISRDNAKNTVYLQMNSLKPEDTAVYYCNTVGTRQPMDYWGQGTQVTVSS", "polyreactivity (PSR sort gate)": "high polyreactivity"},
      {"sequence": "QVQLVESGGGLVQAGGSLRLSCAASGFTFKYYAMGWYRQAPGKERELVAAISSGVSTNYADSVKGRFTISRDNAKNTVYLQMNSLKPEDTAVYYCNAEVFWWDQWYDYWGQGTQVTVSS", "polyreactivity (PSR sort gate)": "high polyreactivity"},
      {"sequence": "QVQLVESGGGLVQAGGSLRLSCAASGFTFKYYAMGWYRQAPGKERELVASISYSGGRTSYADSVKGRFTISRDNAKNTVYLQMNSLKPEDTAVYYCNADVRRIDYKSRQYDYWGQGTQVTVSS", "polyreactivity (PSR sort gate)": "high polyreactivity"},
      {"sequence": "QVQLVESGGGLVQAGGSLRLSCAASGFTFKYYAMGWYRQAPGKERELVAVINQSGGSTSYADSVKGRFTISRDNAKNTVYLQMNSLKPEDTAVYYCAALVGLFWLWNYDYWGQGTQVTVSS", "polyreactivity (PSR sort gate)": "high polyreactivity"},
      {"sequence": "QVQLVESGGGLVQAGGSLRLSCAASGFTFKYYAMGWYRQAPGKERELVAVISSSGGSTYYADSVKGRFTISRDNAKNTVYLQMNSLKPEDTAVYYCNTDAYWHRQQYDYWGQGTQVTVSS", "polyreactivity (PSR sort gate)": "low polyreactivity"},
      {"sequence": "QVQLVESGGGLVQAGGSLRLSCAASGFTFKYYVKGWYRQAPGKERELVAAISSNGGTTYYADSVKGRFTISRDNAKNTVYVQMNSLKPEDTAVYYCAAEPGQEYVVGYSYWGQGSQVTVSS", "polyreactivity (PSR sort gate)": "high polyreactivity"},
      {"sequence": "QVQLVESGGGLVQAGGSLRLSCAASGFTFLKYAMGGYRQAPGKERDLVARITSGGRTYYADSVKGRFTISRDNAKNTVYLQMNSLKPEDTAVYYCNAVKSYASLYAVFYDWGQGTQVTVSS", "polyreactivity (PSR sort gate)": "high polyreactivity"},
      {"sequence": "QVQLVESGGGLVQAGGSLRLSCAASGFTFLKYAMGWYRQAPGKERELVAAISWSGGRTFYADSVKGRFTISRDNAKNTVYLQMISLKPEDTAVYYCATRTRGSVYRFDYWGQGTQVTVSS", "polyreactivity (PSR sort gate)": "high polyreactivity"},
      {"sequence": "QVQLVESGGGLVQAGGSLRLSCAASGFTFLRYAMGWYRQAPGKERELVAAITGSGGSTYYADSVKGRFTISRDNAKNTVYLQMNSLKPEDTAVYYCSIVSKFTGDYGYWGQGTQVTVSS", "polyreactivity (PSR sort gate)": "high polyreactivity"},
      {"sequence": "QVQLVESGGGLVQAGGSLRLSCAASGFTFLSNDMGWYRQSPGKERELVAGINFSGDGTYYADSVKGRFTISRDNAKNPVYLQMNSLKPEDSAVYYCAAGWLPKYGYWGKGTQVTVSS", "polyreactivity (PSR sort gate)": "low polyreactivity"},
      {"sequence": "QVQLVESGGGLVQAGGSLRLSCAASGFTFLTNAMGWYRQAPGKERELVAAISSGGNTNYADSVKGRFTISRDNAKNTVYLQMNSLKPEDTAVYYCAADNDYLSSQVSYDYWGQGTQVTVSS", "polyreactivity (PSR sort gate)": "low polyreactivity"},
      {"sequence": "QVQLVESGGGLVQAGGSLRLSCAASGFTFLVNAMGWYRQAPGKERELVAAISSGGSTYYADSVKGRFTISRDNAKNTVYLQMNSLKPEDTAVYYCAAPTDFLFWEFDYWGQCTQVTVSS", "polyreactivity (PSR sort gate)": "low polyreactivity"},
      {"sequence": "QVQLVESGGGLVQAGGSLRLSCAASGFTFLVYAMGWYRQAPGKERELVAAISRRGCSTYYADSVKGRFTISRDNAKNTVYLQMNSLKPEDTSVYYCNKYRQQGWEFDYWGQGTQVTVSS", "polyreactivity (PSR sort gate)": "high polyreactivity"},
      {"sequence": "QVQLVESGGGLVQAGGSLRLSCAASGFTFLYGMGWYRQAPGEERELVAAISNTGGSTYYADSVKGRFTISRDNAKNTVYLQMNSLKPEDTAVYYCAADGGQWWVFYALDFWGQGTQVTVSS", "polyreactivity (PSR sort gate)": "low polyreactivity"},
      {"sequence": "QVQLVESGGGLVQAGGSLRLSCAASGFTFLYYAMGWYRPAPGKERELVAAISASSDRTYYADSVKGRFTISRDNAKNTVYLQMNSLKPEDTAVYYCAAYNSRVGGYRGYGYWGQGTQVTVSS", "polyreactivity (PSR sort gate)": "high polyreactivity"},
      {"sequence": "QVQLVESGGGLVQAGGSLRLSCAASGFTFLYYDMGWYRQAPGKERELVAAITNDDSTYYADSVKGRFTISRDNAKNTVYLQMNSLKPEDTAVYYCNADVWYYTPYDYWGQVTQVTVSS", "polyreactivity (PSR sort gate)": "high polyreactivity"},
      {"sequence": "QVQLVESGGGLVQAGGSLRLSCAASGFTFNDNAMGWYRQAPGKERELVAAITYGGSTYYADSVKGRFTISRDNAKNTVYLQMNSLKPEDTAVYYCARDLSAGPGRDYWGQGTQVTVSS", "polyreactivity (PSR sort gate)": "low polyreactivity"},
      {"sequence": "QVQLVESGGGLVQAGGSLRLSCAASGFTFNKYAMGCYRQAPGKERELVAAISGSGGRTYYADSVKGRFTISRDNAKNTVYLQMNSLKPEDTAVYYCAAQRSVKVDYWGQGTQVTVSS", "polyreactivity (PSR sort gate)": "high polyreactivity"},
      {"sequence": "QVQLVESGGGLVQAGGSLRLSCAASGFTFNNNAMGWYRQAPGKERELVAAISSSGGNTYYADSVKGRFTISRDNAKNTVYLQMNSLKPEDTAVYYCNAGKRQRGEYWGQGTQVTVSS", "polyreactivity (PSR sort gate)": "high polyreactivity"},
      {"sequence": "QVQLVESGGGLVQAGGSLRLSCAASGFTFNRYAMGWYRQAPGKERELVAAITSGGRTYYADSVKGRFTISRDNAKNTVYLQMNSLKPEDTAVYYCATLYVRNVSGYDYWGQGTQVTVSS", "polyreactivity (PSR sort gate)": "high polyreactivity"},
      {"sequence": "QVQLVESGGGLVQAGGSLRLSCAASGFTFNSYAMGWYRQAPGKEREFVAAISRSGSNTNYADSVKGRFTISRDNAKNTVYLEMNSLKPEDTAVYYCAARVSSVTRSGFGYWGEGTQVTVSS", "polyreactivity (PSR sort gate)": "high polyreactivity"},
      {"sequence": "QVQLVESGGGLVQAGGSLRLSCAASGFTFNSYAMGWYRQAPGKKGSWLAITSDGSTYYADSVKGRFTISRDNAKNTVYLQMNSLKPEDSAVYFCAVRTSWYGAASRYYYWGQGTKVTVSS", "polyreactivity (PSR sort gate)": "high polyreactivity"},
      {"sequence": "QVQLVESGGGLVQAGGSLRLSCAASGFTFNYYAMGLYRQAPGKERELVARITSGGSTYYADSVKGRFTISRDNAKNTVYLQMNSLKPEDTAVYYCNVDVSVEVAYWGQGTQVTVSS", "polyreactivity (PSR sort gate)": "low polyreactivity"},
      {"sequence": "QVQLVESGGGLVQAGGSLRLSCAASGFTFNYYAMGWYRQAPGKERELVAGITRSGVSTNYADSVKGRFTISRDNAKNTVYLQMNSLKPEDTAVYYCAREEGRRYRGWPYVYAPQHDYWGQGTQVTVSS", "polyreactivity (PSR sort gate)": "high polyreactivity"},
      {"sequence": "QVQLVESGGGLVQAGGSLRLSCAASGFTFNYYVMGWYRQAPGKEREMVSAISRGGGSTYYADSVKGRFTISRDNAKNTVYLQMNSLKPEDTEVYYCAARPYSYLFFYWGQGTQVTVSS", "polyreactivity (PSR sort gate)": "high polyreactivity"},
      {"sequence": "QVQLVESGGGLVQAGGSLRLSCAASGFTFPAYAMGWYRQAPGKERELVAAISSRGGSTYYADSVKGRFTISRDNAKNTVYLQMNSLKPEDTAVYYCASRRANGYYYWGQGTQVTVSS", "polyreactivity (PSR sort gate)": "high polyreactivity"},
      {"sequence": "QVQLVESGGGLVQAGGSLRLSCAASGFTFPGNAMGWYRQAPGKEREFVAAITRSSGSTSYADSVKGRFTISRDNAKNTVYLQMTSLKPEDTAVYRDYWGQGTQVTVSS", "polyreactivity (PSR sort gate)": "low polyreactivity"},
      {"sequence": "QVQLVESGGGLVQAGGSLRLSCAASGFTFPGYAMGGYRQAPGKERELVAAISSTDRTTYADSVKGRFTISRDNAKNTVYLQMNSLKPEDTAVYYCNTATRRRPRGYWGQGTQVTVSS", "polyreactivity (PSR sort gate)": "high polyreactivity"},
      {"sequence": "QVQLVESGGGLVQAGGSLRLSCAASGFTFPGYAMGWYRQAPGKERELVAAISYSSGSTYYADSVKGRFTISRDNAKNTVYLQMNSLKPEDTAVYYCNRVYRFRGITELDYWGQGTQVTVSS", "polyreactivity (PSR sort gate)": "high polyreactivity"},
      {"sequence": "QVQLVESGGGLVQAGGSLRLSCAASGFTFPNYAMGWYRQAPGKERELVAAISRRGGRTYYADSVKGRFTISRDNAKNTVYLQMNSLKPEDTAVYYCATEYRGDGPKYDYWGQGTQVTVSS", "polyreactivity (PSR sort gate)": "high polyreactivity"},
      {"sequence": "QVQLVESGGGLVQAGGSLRLSCAASGFTFPNYAMGWYRQAPGKERELVAAITSGGGRTNYADSVKGRFTISRDNAKNTVYLQMNSLKPEDTAVYYCAKTRVRGSEFGYWGQGTQVTVSS", "polyreactivity (PSR sort gate)": "low polyreactivity"},
      {"sequence": "QVQLVESGGGLVQAGGSLRLSCAASGFTFPPYAMGWYRQAPGKERELVAAISSAGSTKYADSVKGRFTISRDNAKNTVYLQMNSLKPEDSAVYYCDKKGRTARGRYDYWGQGTQVTVSS", "polyreactivity (PSR sort gate)": "low polyreactivity"},
      {"sequence": "QVQLVESGGGLVQAGGSLRLSCAASGFTFPRNAMGWYRQAPGKERELVAAISRGGGGTYYADSVKGRFTISRDNAKNTVYLQMNSLKPEDTAVYYCNARSVVREFNYWGQGTQVTVSS", "polyreactivity (PSR sort gate)": "high polyreactivity"},
      {"sequence": "QVQLVESGGGLVQAGGSLRLSCAASGFTFPRYAMGWYRQAPGKERELVAAITSGDRTYYADSVKGRFTISRDNAKNTVYLQMNSLKPEDTAVYYCAKSSPRKSSQKHSFYEYNYWGQGTQVTVSS", "polyreactivity (PSR sort gate)": "high polyreactivity"},
      {"sequence": "QVQLVESGGGLVQAGGSLRLSCAASGFTFPSYAMGWYRQAPGKERELGAVISRRGGSTYYADSVKGRFTISRDNAKNTVYLQLNSLKPEDTAVYYCARPRQPGSLYGYWGQGTQVTVSS", "polyreactivity (PSR sort gate)": "high polyreactivity"},
      {"sequence": "QVQLVESGGGLVQAGGSLRLSCAASGFTFPTYAMGWYRQAPGKERELVAALSTSGARTYYADSVKGRFTISRDNAKNTVYLQMNSLKPEDTAVYYCAVGSIYTICFRKGYRFDYWGQGTQVTVSS", "polyreactivity (PSR sort gate)": "high polyreactivity"},
      {"sequence": "QVQLVESGGGLVQAGGSLRLSCAASGFTFPVYALGWYRQAPGKEREFVAAITKSGGGTYYADSVKGRFTISRDNAKNTVYLQMTSLKPEDTAVYYCAKASRRFLTLGYDYWGQGTQVTVSS", "polyreactivity (PSR sort gate)": "high polyreactivity"},
      {"sequence": "QVQLVESGGGLVQAGGSLRLSCAASGFTFPVYAMGWYRQAPGKEREFVAAITYIGGSTDADSVKGRFTISRDNAKNTVYLQMNSLKPEDTAVYYCAADIITEYRADYLVYLEYDYWGQGTQVTVSS", "polyreactivity (PSR sort gate)": "low polyreactivity"},
      {"sequence": "QVQLVESGGGLVQAGGSLRLSCAASGFTFPVYVMGWYRQAPGKERELVSAISGGGGTYYADSVKGRFTISRDNAKNTVYLQMNSLKPEDTAVYYCAADYRTYVYVYGFRHFDYWGQGTQVTVSS", "polyreactivity (PSR sort gate)": "low polyreactivity"},
      {"sequence": "QVQLVESGGGLVQAGGSLRLSCAASGFTFPYYAMGWSRQAPGKERELVAAISFSGGSPYYADSVKGRFTISRDNAKNTVYLQMNSLKPEDTAVYYCAATTKYNGRRSYFKFDYWGQGTQVTVST", "polyreactivity (PSR sort gate)": "high polyreactivity"}
    ]}
  ]
}
